Test results taken from paper PMC7832040 (Science translational medicine, 2020).

Tests used:
CD206 = molecular target: T1, CD206 (Homo sapiens, UniProt P22897); conditions: xenotransplanted tumors; ref [39]–[41]; cited from earlier work
T1 sequence (P22897 19-1456): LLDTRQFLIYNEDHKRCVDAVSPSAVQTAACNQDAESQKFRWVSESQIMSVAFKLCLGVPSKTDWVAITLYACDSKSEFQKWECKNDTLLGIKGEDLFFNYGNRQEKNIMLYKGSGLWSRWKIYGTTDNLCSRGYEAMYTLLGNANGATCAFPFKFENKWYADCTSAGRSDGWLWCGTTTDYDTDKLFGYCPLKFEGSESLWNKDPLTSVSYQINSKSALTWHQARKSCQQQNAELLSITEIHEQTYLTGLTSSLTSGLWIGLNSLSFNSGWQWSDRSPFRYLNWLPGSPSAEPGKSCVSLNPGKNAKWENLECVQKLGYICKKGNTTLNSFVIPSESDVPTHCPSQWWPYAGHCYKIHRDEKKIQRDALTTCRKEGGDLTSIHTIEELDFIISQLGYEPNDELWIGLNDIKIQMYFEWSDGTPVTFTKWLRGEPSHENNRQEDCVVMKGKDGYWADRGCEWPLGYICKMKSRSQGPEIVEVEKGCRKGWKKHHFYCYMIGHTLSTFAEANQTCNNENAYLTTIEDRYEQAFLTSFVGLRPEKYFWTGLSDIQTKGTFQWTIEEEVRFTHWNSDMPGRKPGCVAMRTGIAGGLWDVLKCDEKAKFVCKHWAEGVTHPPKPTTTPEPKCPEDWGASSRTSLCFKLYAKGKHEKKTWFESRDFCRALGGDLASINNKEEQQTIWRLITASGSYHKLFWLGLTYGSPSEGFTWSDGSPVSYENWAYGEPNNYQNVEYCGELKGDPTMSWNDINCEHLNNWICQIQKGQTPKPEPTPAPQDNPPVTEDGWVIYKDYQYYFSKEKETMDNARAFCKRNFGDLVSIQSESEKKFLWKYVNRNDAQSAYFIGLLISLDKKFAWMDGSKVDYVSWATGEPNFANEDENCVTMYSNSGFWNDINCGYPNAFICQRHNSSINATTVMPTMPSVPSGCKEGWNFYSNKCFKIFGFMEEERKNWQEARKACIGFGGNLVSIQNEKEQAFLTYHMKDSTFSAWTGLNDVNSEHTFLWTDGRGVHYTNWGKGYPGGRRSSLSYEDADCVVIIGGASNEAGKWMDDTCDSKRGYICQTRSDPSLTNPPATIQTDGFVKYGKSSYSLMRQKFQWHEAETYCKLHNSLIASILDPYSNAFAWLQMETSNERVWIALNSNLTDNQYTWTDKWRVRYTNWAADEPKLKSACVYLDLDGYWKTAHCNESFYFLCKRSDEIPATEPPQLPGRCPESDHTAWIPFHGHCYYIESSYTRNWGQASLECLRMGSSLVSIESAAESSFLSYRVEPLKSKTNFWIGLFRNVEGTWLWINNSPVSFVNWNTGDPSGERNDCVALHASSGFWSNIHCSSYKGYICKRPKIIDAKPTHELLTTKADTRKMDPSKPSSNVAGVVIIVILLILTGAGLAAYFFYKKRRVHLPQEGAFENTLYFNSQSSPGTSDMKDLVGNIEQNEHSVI

[1] = molecular target: endogenous CD206 in murine M2-polarized macrophages (BMDMs) (mouse (endogenous in M2 BMDMs)) (UniProt Q61830); test: cellular thermal shift assay
[2] = molecular target: endogenous CD206 in human M2-polarized macrophages (human (endogenous in M2-polarized macrophages)) (UniProt P22897); test: cellular thermal shift assay
[3] = molecular target: mannose receptor CD206, human, recombinant (human) (UniProt P22897); test: MST
murine CD206 (murine) = murine CD206 (murine) (UniProt Q61830); test: MST
Chain of murine CD206 (murine) (Q61830 20-1456): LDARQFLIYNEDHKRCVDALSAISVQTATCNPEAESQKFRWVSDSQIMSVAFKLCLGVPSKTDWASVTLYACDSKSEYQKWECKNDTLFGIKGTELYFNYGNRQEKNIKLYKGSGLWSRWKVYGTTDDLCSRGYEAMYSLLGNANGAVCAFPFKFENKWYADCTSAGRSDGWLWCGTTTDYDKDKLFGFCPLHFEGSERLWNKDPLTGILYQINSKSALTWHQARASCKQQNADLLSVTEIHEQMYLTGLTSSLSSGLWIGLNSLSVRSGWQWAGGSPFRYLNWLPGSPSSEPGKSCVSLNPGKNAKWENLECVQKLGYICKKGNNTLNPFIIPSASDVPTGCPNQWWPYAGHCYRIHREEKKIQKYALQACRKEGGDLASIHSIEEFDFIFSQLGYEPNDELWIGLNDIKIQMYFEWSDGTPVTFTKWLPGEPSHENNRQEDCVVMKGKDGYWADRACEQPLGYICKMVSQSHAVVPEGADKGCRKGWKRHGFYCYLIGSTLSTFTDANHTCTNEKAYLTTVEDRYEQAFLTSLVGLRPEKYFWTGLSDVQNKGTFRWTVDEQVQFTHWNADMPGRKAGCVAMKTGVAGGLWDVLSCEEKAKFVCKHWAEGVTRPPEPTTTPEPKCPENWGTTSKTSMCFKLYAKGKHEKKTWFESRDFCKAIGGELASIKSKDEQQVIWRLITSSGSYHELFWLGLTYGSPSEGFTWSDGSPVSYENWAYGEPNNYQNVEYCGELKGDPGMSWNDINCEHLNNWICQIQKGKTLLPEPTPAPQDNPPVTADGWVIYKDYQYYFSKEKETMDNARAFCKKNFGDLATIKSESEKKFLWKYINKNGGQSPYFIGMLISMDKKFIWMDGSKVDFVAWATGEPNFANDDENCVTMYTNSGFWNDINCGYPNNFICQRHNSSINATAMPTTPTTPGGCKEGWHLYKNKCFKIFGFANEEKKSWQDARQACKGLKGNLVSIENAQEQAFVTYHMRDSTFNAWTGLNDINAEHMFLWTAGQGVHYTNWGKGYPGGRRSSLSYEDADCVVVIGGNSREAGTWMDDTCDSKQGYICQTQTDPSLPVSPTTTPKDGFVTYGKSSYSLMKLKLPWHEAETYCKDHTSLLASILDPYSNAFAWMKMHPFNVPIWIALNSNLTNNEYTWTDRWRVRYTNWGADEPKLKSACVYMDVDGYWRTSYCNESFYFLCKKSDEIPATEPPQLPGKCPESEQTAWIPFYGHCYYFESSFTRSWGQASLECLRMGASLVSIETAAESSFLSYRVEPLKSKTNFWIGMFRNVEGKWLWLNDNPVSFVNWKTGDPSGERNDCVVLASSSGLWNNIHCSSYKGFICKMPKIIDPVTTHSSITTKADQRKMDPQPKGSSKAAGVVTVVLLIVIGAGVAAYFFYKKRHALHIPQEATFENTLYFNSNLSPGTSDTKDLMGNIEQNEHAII

Chain of endogenous CD206 in murine M2-polarized macrophages (BMDMs) (mouse (endogenous in M2 BMDMs)) (Q61830 20-1456): as above

| thermostability shift of CD206 (CETSA) [1] | thermostability shift of CD206 (CETSA) [2] | Kd [3] | Kd (murine CD206 (murine)) | Substance | delivery of nanoparticles to tumors (CD206) |
| --- | --- | --- | --- | --- | --- |
|  |  |  |  | CSPGAKVRC [UNO] | able to carry drug-loaded nanoparticles targeting CD206 into xenotransplanted tumors |
| > 4 ° | > 4 ° | 8 µM | 19 µM | RP-182 (peptide) |  |
